We go through 78 sequences from the supplement of paper PMC7877785.

This series is described as follows: self-splicing fitness, log relative to wild type (ln ratio); higher = more splicing; Tetrahymena group I intron in knt gene, E. coli kanamycin selection, DiMSum; sequences stand for … in CUCUCU…GGAGGGAAAAGUUAUCAGGCAUGCACCUGGUAGCUAGUCUUUAAACCAAUAGAUUGCAUCGGUUUAAAAGGCAAGACCGUCAAAUUGCGGGAAAGGGGUCAACAGCCGUUCAGUACCAAGUCUCAGGGGAAACUUUGAGAUGGCCUUGCAAAGGGUAUGGUAAUAAGCUGACGGACAUGGUCCUAACCACGCAGCCAAGUCCUAAGUCAACAGAUCUUCUGUUGAUAUGGAUGCAGUUCACAGACUAAAUGUCGGUCGGGGAAGAUGUAUUCUUCUCAUAAGAUAUAGUCGGACCUCUCCUUAAUGGGAGCUAGCGGAUGAAGUGAUGCAACACUGGAGCCGCUGGGAACUAAUUUGUAUGCGAAAGUAUAUUGAUUAGUUUUGGAGUACUCGUGGUCG
A digest of the protocol:
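Library with all eight P1ex-region intron nucleotides randomised, intron inside the knt kanamycin-resistance gene on pET-22b(+), in E. coli BL21(DE3). Cells grew overnight at 37°C or 30°C on LB agar with or without 25 μg/mL kanamycin (plus 100 μg/mL carbenicillin, 50 μM IPTG, 0.2% rhamnose), in six replicate transformations. Pooled colonies were amplicon-sequenced on Illumina HiSeq 2500. DiMSum fitness is the error-weighted combination of wild-type-normalised replicate fold changes, kanamycin versus none.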

± gives the uncertainty stated by the source.

For CGACAGCAAUAUUACGAUAC, the “self-splicing fitness (ln)” value was -3.71 ± 0.25 (30 °C) and -2.96 ± 0.27 (37 °C).
In the same order, the values of CGACAGCAAUAUUACGAUCG are -3.43 ± 0.2 and -2.11 ± 0.2.
Take CGACAGCAAUAUUACGAUGG: the “self-splicing fitness (ln)” value (30 °C) was -0.855 ± 0.072 and the “self-splicing fitness (ln)” value (37 °C) is -0.172 ± 0.094.
In the same order, the values of CGACAGCAAUAUUACGCCAA are -2.18 ± 0.28 and -3.28 ± 0.37.
CGACAGCAAUAUUACGCCGA: the “self-splicing fitness (ln)” value is -2.36 ± 0.11 (30 °C) and -0.991 ± 0.094 (37 °C).
In the same order, the values of CGACAGCAAUAUUACGCCGG are -0.394 ± 0.059 and -0.272 ± 0.067.
In the same order, the values of CGACAGCAAUAUUACGCGCA are -1.17 ± 0.13 and -0.0102 ± 0.12.
Consider CGACAGCAAUAUUACGCGCC, for which the “self-splicing fitness (ln)” value is -2.02 ± 0.13 (30 °C) and -0.187 ± 0.17 (37 °C).
In the same order, the values of CGACAGCAAUAUUACGCGCG are -2.61 ± 0.19 and -1.8 ± 0.18.
CGACAGCAAUAUUACGCGUU: the “self-splicing fitness (ln)” value is, setting by setting: (30 °C) -4.77 ± 0.26; (37 °C) -3.29 ± 0.18.
In the same order, the values of CGACAGCAAUAUUACGCUUU are -5.56 ± 0.41 and -2.05 ± 0.15.
In the same order, the values of CGACAGCAAUAUUACGGAAA are -1.98 ± 0.21 and -2.2 ± 0.18.
In the same order, the values of CGACAGCAAUAUUACGGAGG are -1.91 ± 0.086 and -1.21 ± 0.12.
On to CGACAGCAAUAUUACGGCAG, for which the “self-splicing fitness (ln)” value reads like this: (30 °C) -0.376 ± 0.083; (37 °C) 0.289 ± 0.094.
On to CGACAGCAAUAUUACGGCCU, for which the “self-splicing fitness (ln)” value (30 °C) was -1.57 ± 0.13 and the “self-splicing fitness (ln)” value (37 °C) was -0.3 ± 0.14.
In the same order, the values of CGACAGCAAUAUUACGGCUG are -3.32 ± 0.19 and -0.951 ± 0.16.
In the same order, the values of CGACAGCAAUAUUACGUAGU are -3.12 ± 0.099 and -2.11 ± 0.12.
In the same order, the values of CGACAGCAAUAUUACGUCAG are -2.38 ± 0.094 and -1.94 ± 0.12.
Turning to CGACAGCAAUAUUACGUCGA, the “self-splicing fitness (ln)” value (30 °C) was -3.04 ± 0.18 and the “self-splicing fitness (ln)” value (37 °C) is -2.51 ± 0.15.
In the same order, the values of CGACAGCAAUAUUACGUGCA are -1.57 ± 0.057 and -0.14 ± 0.07.
With CGACAGCAAUAUUACGUUAU, the “self-splicing fitness (ln)” value (30 °C) is -3.7 ± 0.13 and the “self-splicing fitness (ln)” value (37 °C) was -2.23 ± 0.12.
In the same order, the values of CGAGAGCAAUAUUACGACAG are -2.82 ± 0.37 and -1.15 ± 0.32.
In the same order, the values of CGAGAGCAAUAUUACGAUGU are -3.97 ± 0.25 and -1.83 ± 0.19.
For CGAGAGCAAUAUUACGAUUG, the “self-splicing fitness (ln)” value (37 °C) is -2.09 ± 0.34.
As to CGAGAGCAAUAUUACGCAUU, the “self-splicing fitness (ln)” value reads like this: (30 °C) -2.84 ± 0.24; (37 °C) -2.33 ± 0.21.
Consider CGAGAGCAAUAUUACGCUGU, for which, where the note is “37 °C”, the “self-splicing fitness (ln)” value is -3.26 ± 0.38.
With CGAGAGCAAUAUUACGGACA, the “self-splicing fitness (ln)” value runs as follows: (30 °C) -1.85 ± 0.28; (37 °C) -3.4 ± 0.39.
For CGAGAGCAAUAUUACGGAUG, the “self-splicing fitness (ln)” value was -3.42 ± 0.33 (30 °C) and -1.83 ± 0.28 (37 °C).
For the sequence CGAGAGCAAUAUUACGGCAG, the “self-splicing fitness (ln)” value (30 °C) is -2 ± 0.18 and the “self-splicing fitness (ln)” value (37 °C) is -1.33 ± 0.22.
With CGAGAGCAAUAUUACGGGUU, the “self-splicing fitness (ln)” value (37 °C) is -2.27 ± 0.5.
For the sequence CGAGAGCAAUAUUACGGUCC, the “self-splicing fitness (ln)” value (30 °C) was -2.23 ± 0.23.
With CGAGAGCAAUAUUACGGUCG, the “self-splicing fitness (ln)” value runs as follows: (30 °C) -1.42 ± 0.34; (37 °C) -2.28 ± 0.24.
Turning to CGAGAGCAAUAUUACGUACA, the “self-splicing fitness (ln)” value is -1.64 ± 0.27 (30 °C) and -1.71 ± 0.42 (37 °C).
Consider CGAGAGCAAUAUUACGUCAC, for which the “self-splicing fitness (ln)” value is, setting by setting: (30 °C) -4.62 ± 0.39; (37 °C) -2.45 ± 0.3.
In the same order, the values of CGAGAGCAAUAUUACGUCAG are -2.31 ± 0.17 and -2.54 ± 0.21.
In the same order, the values of CGAGAGCAAUAUUACGUGAA are -3.24 ± 0.2 and -2.44 ± 0.29.
For CGAGAGCAAUAUUACGUGCA, the “self-splicing fitness (ln)” value (30 °C) is -3.22 ± 0.23 and the “self-splicing fitness (ln)” value (37 °C) was -3.2 ± 0.43.
In the same order, the values of CGAGAGCAAUAUUACGUUCU are -3.16 ± 0.13 and -2.83 ± 0.17.
On to CGAGAGCAAUAUUACGUUGA, for which, under “30 °C”, the “self-splicing fitness (ln)” value is -2.79 ± 0.38.
In the case of CGAUAGCAAUAUUACGAAAA, the “self-splicing fitness (ln)” value was -3.85 ± 0.48 (30 °C) and -2.7 ± 0.3 (37 °C).
CGAUAGCAAUAUUACGAUAG: the “self-splicing fitness (ln)” value was -0.572 ± 0.089 (30 °C) and -0.275 ± 0.1 (37 °C).
Consider CGAUAGCAAUAUUACGAUGG, for which the “self-splicing fitness (ln)” value runs as follows: (30 °C) -0.196 ± 0.12; (37 °C) -0.185 ± 0.2.
In the same order, the values of CGAUAGCAAUAUUACGAUUA are -1.59 ± 0.13 and -0.77 ± 0.15.
In the same order, the values of CGAUAGCAAUAUUACGCCUG are -0.681 ± 0.15 and 0.308 ± 0.11.
In the same order, the values of CGAUAGCAAUAUUACGCGAC are -2.59 ± 0.32 and -1.35 ± 0.28.
CGAUAGCAAUAUUACGCGGG: the “self-splicing fitness (ln)” value runs as follows: (30 °C) -4.21 ± 0.31; (37 °C) -2.42 ± 0.24.
Consider CGAUAGCAAUAUUACGCGGU, for which the “self-splicing fitness (ln)” value was -3.13 ± 0.27 (30 °C) and -1.94 ± 0.19 (37 °C).
For the sequence CGAUAGCAAUAUUACGCUAU, the “self-splicing fitness (ln)” value (30 °C) was -2.82 ± 0.19.
For CGAUAGCAAUAUUACGCUUU, the “self-splicing fitness (ln)” value is -3.56 ± 0.35 (30 °C) and -3.14 ± 0.34 (37 °C).
For the sequence CGAUAGCAAUAUUACGGACC, the “self-splicing fitness (ln)” value is -1.78 ± 0.36 (30 °C) and -1.7 ± 0.29 (37 °C).
With CGAUAGCAAUAUUACGGCAC, the “self-splicing fitness (ln)” value (30 °C) is -2.47 ± 0.33 and the “self-splicing fitness (ln)” value (37 °C) is -1.49 ± 0.31.
Consider CGAUAGCAAUAUUACGGCCA, for which the “self-splicing fitness (ln)” value was -1.22 ± 0.12 (30 °C) and -0.957 ± 0.15 (37 °C).
On to CGAUAGCAAUAUUACGGGAG, for which the “self-splicing fitness (ln)” value (30 °C) is -2.86 ± 0.24 and the “self-splicing fitness (ln)” value (37 °C) was -2.39 ± 0.24.
In the same order, the values of CGAUAGCAAUAUUACGGGCG are -1.67 ± 0.12 and -0.602 ± 0.11.
With CGAUAGCAAUAUUACGGGGA, the “self-splicing fitness (ln)” value (37 °C) is -2.27 ± 0.28.
For the sequence CGAUAGCAAUAUUACGGUAA, the “self-splicing fitness (ln)” value (30 °C) is -3.58 ± 0.31 and the “self-splicing fitness (ln)” value (37 °C) is -1.8 ± 0.27.
On to CGAUAGCAAUAUUACGGUAC, for which the “self-splicing fitness (ln)” value runs as follows: (30 °C) -3.93 ± 0.24; (37 °C) -2.89 ± 0.25.
For the sequence CGAUAGCAAUAUUACGGUGG, the “self-splicing fitness (ln)” value runs as follows: (30 °C) -1.03 ± 0.086; (37 °C) -0.748 ± 0.09.
Take CGAUAGCAAUAUUACGUAAA: the “self-splicing fitness (ln)” value is -2.6 ± 0.32 (30 °C) and -0.509 ± 0.26 (37 °C).
In the same order, the values of CGAUAGCAAUAUUACGUAGG are -0.695 ± 0.056 and -0.444 ± 0.068.
In the same order, the values of CGAUAGCAAUAUUACGUCUC are -2.61 ± 0.19 and -2.55 ± 0.32.
For CGAUAGCAAUAUUACGUGAC, the “self-splicing fitness (ln)” value is -2.87 ± 0.18 (30 °C) and -2.36 ± 0.23 (37 °C).
In the same order, the values of CGAUAGCAAUAUUACGUGCA are -2.67 ± 0.15 and -2.13 ± 0.16.
In the same order, the values of CGAUAGCAAUAUUACGUUAG are -0.734 ± 0.084 and -0.52 ± 0.093.
With CGAUAGCAAUAUUACGUUUA, the “self-splicing fitness (ln)” value (37 °C) is -2.57 ± 0.21.
Take CGCAAGCAAUAUUACGAUCA: the “self-splicing fitness (ln)” value runs as follows: (30 °C) -1.58 ± 0.12; (37 °C) 0.00155 ± 0.11.
In the same order, the values of CGCAAGCAAUAUUACGAUUA are -2.6 ± 0.17 and -1.29 ± 0.15.
In the same order, the values of CGCAAGCAAUAUUACGCAUA are -3.81 ± 0.3 and -0.539 ± 0.15.
As to CGCAAGCAAUAUUACGCGAC, the “self-splicing fitness (ln)” value reads like this: (30 °C) -3.77 ± 0.39; (37 °C) -1.68 ± 0.18.
On to CGCAAGCAAUAUUACGCGCC, for which the “self-splicing fitness (ln)” value (30 °C) was -3.06 ± 0.21 and the “self-splicing fitness (ln)” value (37 °C) is -1.54 ± 0.17.
Turning to CGCAAGCAAUAUUACGCGGC, the “self-splicing fitness (ln)” value by setting is: (30 °C) -3.05 ± 0.28; (37 °C) -2.81 ± 0.38.
In the same order, the values of CGCAAGCAAUAUUACGCGUC are -3.7 ± 0.37 and -3.31 ± 0.35.
As to CGCAAGCAAUAUUACGCUUC, the “self-splicing fitness (ln)” value (30 °C) is -3.18 ± 0.3.
For CGCAAGCAAUAUUACGCUUG, the “self-splicing fitness (ln)” value is, setting by setting: (30 °C) -2.74 ± 0.2; (37 °C) -1.87 ± 0.21.
In the same order, the values of CGCAAGCAAUAUUACGCUUU are -3.44 ± 0.21 and -2.34 ± 0.21.
In the same order, the values of CGCAAGCAAUAUUACGGAUC are -2 ± 0.19 and -2.21 ± 0.18.
In the same order, the values of CGCAAGCAAUAUUACGGAUG are -1.2 ± 0.062 and -0.889 ± 0.073.
For CGCAAGCAAUAUUACGGCAA, the “self-splicing fitness (ln)” value runs as follows: (30 °C) -1.41 ± 0.1; (37 °C) -0.0385 ± 0.081.
